Here are results for three substances from article PMC4423211 (2015).

The target in assay [1] is IL1RAPL1-ECD D37A (mouse) (UniProt P59823). The experiment in a line: SPR; equilibrium; Biacore T200, 25 °C, 10 mM Hepes (pH 7.9), 150 mM NaCl, 0.05% Tween-20; IL1RAPL1-ECD-His6 amine-coupled on a CM5 chip (about 2,000 RU); PTPδ Ig1–Fn1 variants or mutants injected as analytes, 15.6 to 4,000 nM. (In SPR one partner is held on a chip, and binding of the other changes the refractive index at the surface.)

Assay [2] addresses IL1RAPL1-ECD M75A/Y77A/P88A/F91A (mouse) (UniProt P59823). The assay is described as above.
Assay [3] addresses IL1RAPL1-ECD-His6, wild type (mouse) (UniProt P59823). The description is as above.
For assay [4], the target named is IL1RAPL1-ECD D292A (mouse) (UniProt P59823). The description is as above.
The target in assay [5] is IL-1RAcP-ECD-Fc, wild type (mouse) (UniProt Q61730). The assay can be described thus: SPR; equilibrium; Biacore T200, 25 °C, 10 mM Hepes (pH 7.9), 150 mM NaCl, 0.05% Tween-20; IL-1RAcP-ECD-Fc captured (about 700 RU) by anti-Fc antibodies immobilised on a CM5 chip; PTPδ Ig1–Fn1 variants or mutants injected as analytes, 15.6 to 4,000 nM.
In assay [6] the target is IL-1RAcP-ECD W27A (mouse) (UniProt Q61730). The description is as above.
Assay [7] has as its target IL-1RAcP-ECD K94A (mouse) (UniProt Q61730). The assay is described as above.
In assay [8] the target is IL-1RAcP-ECD D30A (mouse) (UniProt Q61730). Described as above.
The target of assay [9] is IL1RAPL1-ECD-His6, wild type (mouse) (UniProt P59823). The assay can be described thus: crystal structure; sitting drop vapour diffusion at 20 °C; the two proteins mixed at a molar ratio of 1:1 to about 6 g/l before crystallisation.
Assay [10] addresses IL-1RAcP-ECD (His6-tagged, for crystallography) (mouse) (UniProt Q61730). The assay is described as above.

pKd: −log10 of the molar value.

Sequence of IL1RAPL1-ECD-His6, wild type (mouse) (P59823 19-352): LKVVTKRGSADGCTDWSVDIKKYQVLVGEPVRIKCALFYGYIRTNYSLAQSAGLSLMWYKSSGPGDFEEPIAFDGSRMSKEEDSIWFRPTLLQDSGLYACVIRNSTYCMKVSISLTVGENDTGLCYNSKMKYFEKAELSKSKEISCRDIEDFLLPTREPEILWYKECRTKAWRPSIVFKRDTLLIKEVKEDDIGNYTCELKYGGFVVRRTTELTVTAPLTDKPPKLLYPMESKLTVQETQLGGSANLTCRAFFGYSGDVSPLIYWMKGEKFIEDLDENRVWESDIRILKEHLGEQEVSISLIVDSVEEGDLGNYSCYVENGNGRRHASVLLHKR
Sequence of IL-1RAcP-ECD K94A (mouse) (Q61730 21-367 K94A): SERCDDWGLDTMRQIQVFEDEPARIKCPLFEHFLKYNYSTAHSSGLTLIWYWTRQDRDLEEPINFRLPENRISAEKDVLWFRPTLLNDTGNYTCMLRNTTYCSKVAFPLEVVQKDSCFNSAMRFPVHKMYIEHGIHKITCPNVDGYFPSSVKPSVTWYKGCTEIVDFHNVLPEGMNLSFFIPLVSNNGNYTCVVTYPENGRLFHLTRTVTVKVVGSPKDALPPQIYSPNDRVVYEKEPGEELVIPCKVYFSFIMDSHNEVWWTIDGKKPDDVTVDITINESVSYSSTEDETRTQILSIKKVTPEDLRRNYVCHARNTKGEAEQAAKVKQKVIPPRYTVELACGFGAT
Sequence of IL1RAPL1-ECD M75A/Y77A/P88A/F91A (mouse) (P59823 19-352 M75A/Y77A/P88A/F91A): as the sequence (P59823 19-352) above, with M57A, Y59A, P70A, F73A counted along it
Sequence of IL-1RAcP-ECD D30A (mouse) (Q61730 21-367 D30A): as the sequence (Q61730 21-367 K94A) above, with D10A, A74K counted along it
Sequence of IL1RAPL1-ECD D37A (mouse) (P59823 19-352 D37A): as the sequence (P59823 19-352) above, with D19A counted along it
Sequence of IL-1RAcP-ECD (His6-tagged, for crystallography) (mouse) (Q61730 21-351): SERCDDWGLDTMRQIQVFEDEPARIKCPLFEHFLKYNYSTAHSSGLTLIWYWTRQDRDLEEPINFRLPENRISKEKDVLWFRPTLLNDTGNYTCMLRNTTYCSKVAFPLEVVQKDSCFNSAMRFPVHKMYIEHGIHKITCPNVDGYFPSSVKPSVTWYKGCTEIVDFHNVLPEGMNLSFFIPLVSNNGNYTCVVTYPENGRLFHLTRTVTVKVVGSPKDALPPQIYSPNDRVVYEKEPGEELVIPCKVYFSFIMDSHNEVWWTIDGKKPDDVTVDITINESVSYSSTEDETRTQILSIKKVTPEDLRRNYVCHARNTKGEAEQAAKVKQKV
Sequence of IL1RAPL1-ECD D292A (mouse) (P59823 19-352 D292A): as the sequence (P59823 19-352) above, with D274A counted along it
Sequence of IL-1RAcP-ECD W27A (mouse) (Q61730 21-367 W27A): as the sequence (Q61730 21-367 K94A) above, with W7A, A74K counted along it
Sequence of IL-1RAcP-ECD-Fc, wild type (mouse) (Q61730 21-367): as the sequence (Q61730 21-367 K94A) above, with A74K counted along it

As usually defined, the pKd is −log10 of the Kd, conventionally taken in molar units. Higher therefore signals a low Kd. Regarding “PTPδ Ig1–Fn1 (isoform containing meA9 and meB), wild type (domain or fragment)”, the negative logarithm of the Kd (pKd) in assay [1] is 5.62; in [2], 5.55; in assay [3], 6.82; in assay [4], 5.66; in [5] it was 6.17; in assay [6], 5.34. The values for the pKd in assay [7] and in assay [8] were 5.09 and 6.21, respectively.
Usually stoichiometry N stands for a count of units in the complex or per binding partner. In the case of “PTPδ-ECD (full-length extracellular domain) (domain or fragment)”, the stoichiometry N in [9] was 1.
As for PTPδ Ig1–Fn2 (domain or fragment), the stoichiometry N in assay [10] amounted to 1.
